Test results from patent US12545745B2, “Method for treating a degenerative neurological disorders comprising administering ASM inhibitor” (KYUNGPOOK NATIONAL UNIVERSITY INDUSTRY-ACADEMIC COOPERATION …, priority 2013, dated 2026).

Tests used:
ASM = molecular target: T1, ASM (Mus musculus, UniProt Q04519); test: ASM activity in plasma of depression-induced (RSD stress) mice; type: in vivo; settings: 50 mg/kg i.p. twice weekly for 4 weeks prior to induction, vs PBS, FIG. 58B
T1 construct: from tissue; host or cells: mouse serum/plasma and brain tissue (APP/PS1, RSD-stressed C57BL/6, FUS R521C mice)
T1 sequence (Q04519 45-627): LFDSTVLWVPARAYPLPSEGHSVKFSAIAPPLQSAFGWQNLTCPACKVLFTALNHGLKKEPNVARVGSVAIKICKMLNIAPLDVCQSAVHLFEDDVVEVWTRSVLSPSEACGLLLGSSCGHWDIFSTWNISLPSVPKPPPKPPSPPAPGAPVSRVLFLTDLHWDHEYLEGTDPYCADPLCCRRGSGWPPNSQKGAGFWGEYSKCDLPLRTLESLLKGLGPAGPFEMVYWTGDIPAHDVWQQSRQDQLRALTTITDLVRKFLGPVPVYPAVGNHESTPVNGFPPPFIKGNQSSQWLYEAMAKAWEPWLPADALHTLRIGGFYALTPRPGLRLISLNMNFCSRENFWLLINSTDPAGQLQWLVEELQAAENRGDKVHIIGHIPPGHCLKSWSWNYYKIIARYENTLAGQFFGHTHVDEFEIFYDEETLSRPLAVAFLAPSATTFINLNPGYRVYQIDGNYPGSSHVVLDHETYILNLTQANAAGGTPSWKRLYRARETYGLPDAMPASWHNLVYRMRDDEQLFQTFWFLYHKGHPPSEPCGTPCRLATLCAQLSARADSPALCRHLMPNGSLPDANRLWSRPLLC
Protocol: The concentration level of ASM was measured as follows. Specifically, 3μ ? of mouse serum, brain tissue and fibroblast samples were mixed with ASM activity buffer and stored at 37° C. 114 μ ? of ethanol was added to terminate the hydrolysis reaction, followed by centrifugation. 30 μ ? of supernatant was transferred to a glass vial, of which 5 μ ? was applied to the UPLC system. The ASM concentration levels were quantified by comparison with sphingomyelin and Bodipy (aminoacetaldehyde) conjugated with ceramide. The extraction and quantification of the sphingomyelin and ceramide was carried out by extracting and drying the lipids from the sample according to a known conventional method, and resuspending the dried lipid extract to 25 μl of 0.2% Igepal CA-630 (Sigma-Aldrich), and the concentration levels of each lipid were quantitated using the UPLC system. […]
The concentration level of ASM was measured as follows. […] The ASM concentration levels were quantified by comparison with sphingomyelin and Bodipy (aminoacetaldehyde) conjugated with ceramide. The extraction and quantification of the sphingomyelin and ceramide was carried out by extracting and drying the lipids from the sample according to a known conventional method, and resuspending the dried lipid extract to 25 μl of 0.2% Igepal CA-630 (Sigma-Aldrich), and the concentration levels of each lipid were quantitated using the UPLC system.

APP/PS1 mice = test: Fear conditioning test in APP/PS1 mice; type: in vivo, mouse; settings: 50 mg/kg i.p. twice weekly, vs PBS, FIG. 55D
Source text: More specifically, wild type mice, APP/PS1/ASM^+/− mice, ASM^+/− mice and APP/PS1 mice were used. On day 1 of the test, each mouse was individually placed into a conditioned chamber, and then after a 60-second exploratory period, a tone (10 kHz, 70 dB) was delivered for 10 seconds. This served as the conditioned stimulus (CS). The CS was coterminated with the unconditioned stimulus (US), an electrical footshock (0.3 mA, 1 s). The CS-US pairing was delivered twice at a 20-second intertrial interval. On day 2, each mouse was placed in the fear-conditioning chamber containing the same exact context, but without administration of a CS or footshock. […] On day 3, each mouse was placed in a test chamber that was different from the conditioning chamber. After a 60-second exploratory period, the tone was presented for 60 seconds without the footshock. Freezing response was measured to measure fear memory. The results are illustrated in FIG. 9 and FIG. 10.
For the fear conditioning test, on the first day, mice were placed in a conditioning chamber, and sound stimulation (10 kHz, 70 dB) and electrical stimulation (0.3 mA, 1 s) were given. On the second day, memory for space was checked without stimulation in the same conditioning chamber as on the first day, and on the third day, a memory test for fear was performed when only sound stimulation was given in another conditioning chamber.

B1: ASM-ab 23A12C3: self-made monoclonal ASM antibody, Koma biotech; heavy chain SEQ ID NO. 29, light chain SEQ ID NO. 30 (antibody)
heavy: MGWSWIFLFLLSGTAGVHSEVQLQQSGPVLVKPGASVKMSCKASGYTFTDYYMNWVKQSHGKSLEWIGVINPYNDGTSYNQKFKGKATLTVDKSSSTAYMELNSLTSEDSAVYYCAREKLYYYGRDYAMDYWGQGTSVTVSSAKTTPPSVYPLAPGSAAQTNSMVTLGCLVKGYFPEPVTVTWNSGSLSSGVHTFPAVLQSDLYTLSSSVTVPSSTWPSQTVTCNVAHPASSTKVDKKIVPRDCGCKPCICTVPEVSSVFIFPPKPKDVLTITLTPKVTCVVVDISKDDPEVQFSWFVDDVEVHTAQTKPREEQINSTFRSVSELPIMHQDWLNGKEFKCRVNSAAFPAPIEKTISKTKGRPKAPQVYTIPPPKEQMAKDKVSLTCMITNFFPEDITVEWQWNGQPAENYKNTQPIMDTDGSYFVYSKLNVQKSNWEAGNTFTCSVLHEGLHNHHTEKSLSHSPGK
light: MSSAQFLGLLLLCFQGTRCDIQMTQTTSSLSASLGDRVTISCRSSQDISNYLNWCQQKPDGTVKLLIYYTSRLHSGVPSRFSGSGSGTDYSLTISNLEQEDIATYFCQQDNTLPYTFGGGTKLEIKRADAAPTVSIFPPSSEQLTSGGASVVCFLNNFYPKDINVKWKIDGSERQNGVLNSWTDQDSKDSTYSMSSTLTLTKDEYERHNSYTCEATHKTSTSPIVKSFNRNEC
modifications: 23A12C3_Heavy chain; 23A12C3_Light chain
notes: self-made monoclonal ASM antibody, Koma biotech; 30
level of ASM activity in the plasma (ASM): significantly low | impairments in spatial memory, cognition and memory formation (fear conditioning test) (APP/PS1 mice): improved
